In patent publication US20160009812A1 (University of Texas, published 2016):

How the values were obtained:
[1] = target: T1, total (intracellular) vimentin of human cancer cells (human, UniProt P08670 2-466); experiment: confocal microscopy, intracellular staining
T1 construct: Endogenous protein in lysates or in permeabilized cells; also called total vimentin; cytoplasmic vimentin

[2] = target: vimentin-derived peptides (10, 12 and 15 aa peptides on the peptide microarray); experiment: peptide microarray; 84-1 at 0.2 ug/mL compared with 12-1 at 1 ug/mL
[3] = target: T2, cell-surface vimentin on mouse cancer cells (LM8) (mouse, UniProt P20152 2-466); experiment: immunofluorescence staining of mouse LM8 cells spiked into blood
T2 construct: whole, on cells; also called CSV
Method: FIG. 2B: Detection of single cell spiked into blood using fluorescence microscopy. Single LM8 cell was isolated using serial dilution and spot analysis and spiked into 1 ml of blood. After RBC lysis, mononucleated cell population was stained for 84-1 mAb and AlexaFluor-488 secondary antibody to detect CSV positive cells. […] FIG. 2C: Isolation of single cell from whole blood. Single cell spiked into whole blood was isolated using EasySep based 84-1 positive and CD45 negative selection. This single cell was observable on the culture dish 2 hr after incubation at 37° C. FIG. 2D: Micrographs of cells isolated from blood were costained using antibodies against CSV, CD45 and a nuclear stain DRAQ5. Scale indicates 10 μm. FIG. 2E: Enumeration of CSV positive CTCs from healthy, primary and metastatic patient blood specimens. Blood from the primary cancer patients was used to select threshold of detection (dashed line).
Based on the detection of CSV in a range of cancer cell lines of both epithelial and non-epithelial origin, the inventors hypothesized that it could serve as a biomarker to detect CTC. […] From micrographs it is evident that single cell is detectable in whole blood utilizing fluorescence microscopy (FIG. 2B). […] The inventors further evaluated the sensitivity and specificity of 84-1 antibody using HLM3 and LM7 cells that are positive for 84-1 staining (Table 5).

[4] = target: T3, cell-surface vimentin (CSV) on human cancer cells (human, UniProt P08670 2-466); experiment: screening on osteosarcoma cell lines with and without vimentin on the cell surface
T3 construct: whole, on cells; Endogenous vimentin on the surface of non-permeabilized cancer cells

[5] = target: T4, cell-surface vimentin on canine circulating tumor cells (canine, UniProt A0A8C0N8E3 2-466); experiment: isolation and confocal microscopy of CTC from canine blood
T4 construct: also called CSV
T4 sequence (A0A8C0N8E3 2-466 limits assumed): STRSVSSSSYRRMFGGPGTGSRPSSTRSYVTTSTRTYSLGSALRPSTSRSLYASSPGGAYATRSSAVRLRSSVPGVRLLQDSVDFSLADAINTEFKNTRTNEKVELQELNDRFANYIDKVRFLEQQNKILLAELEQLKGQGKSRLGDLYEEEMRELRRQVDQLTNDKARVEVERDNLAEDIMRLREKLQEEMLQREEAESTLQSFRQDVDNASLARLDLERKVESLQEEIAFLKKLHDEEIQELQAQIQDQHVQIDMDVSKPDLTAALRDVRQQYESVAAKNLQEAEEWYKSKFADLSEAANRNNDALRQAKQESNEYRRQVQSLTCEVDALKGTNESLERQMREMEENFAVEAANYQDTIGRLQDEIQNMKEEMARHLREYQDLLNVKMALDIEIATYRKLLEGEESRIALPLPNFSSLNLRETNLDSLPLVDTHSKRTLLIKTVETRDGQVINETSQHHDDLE

T2 sequence (P20152 2-466): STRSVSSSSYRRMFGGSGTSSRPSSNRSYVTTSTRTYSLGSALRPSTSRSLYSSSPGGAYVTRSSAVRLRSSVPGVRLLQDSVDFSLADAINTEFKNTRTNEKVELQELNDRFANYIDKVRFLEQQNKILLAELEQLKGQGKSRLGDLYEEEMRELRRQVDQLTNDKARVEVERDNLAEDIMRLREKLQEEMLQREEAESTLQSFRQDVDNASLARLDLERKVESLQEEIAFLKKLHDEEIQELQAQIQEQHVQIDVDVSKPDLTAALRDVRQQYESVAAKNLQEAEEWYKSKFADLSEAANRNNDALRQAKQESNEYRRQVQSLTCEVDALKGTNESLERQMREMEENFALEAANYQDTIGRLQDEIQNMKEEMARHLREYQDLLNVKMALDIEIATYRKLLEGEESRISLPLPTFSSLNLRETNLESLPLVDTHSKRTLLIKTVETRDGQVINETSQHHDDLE
T3 sequence (P08670 2-466): as the sequence (A0A8C0N8E3 2-466 limits assumed) above, with G20A, T26S, A59V, S200N, D238E, D250E, M257V, N316T, A411S counted along it
T1 sequence (P08670 2-466 limits assumed): as the sequence (A0A8C0N8E3 2-466 limits assumed) above, with G20A, T26S, A59V, S200N, D238E, D250E, M257V, N316T, A411S counted along it

B1: 84-1 monoclonal antibody (antibody, V domains shown)
VH: QVQLKQSGPGLVQPSQSLSITCTVSGFSLTRYGVHWVRQSPGKGLEWLGVIWSGGSTDYNAAFISRLSFSKDNSKSQVFFKMNSLQANDTAIYYCARRSYYYAMDYWGQGTSVTVS
VL: DVLMTQTPLSLPVSLGDQASISCRSSQSIVHRIGNTYLEWYLQKPGQSPKLLIYKVSNRFSGVPDRFSGSGSGTDFTLKISRVEAEDLGVYYCFQGSHVPLTFGAGTKLEL
notes: Mouse monoclonal antibody from hybridoma 84-1, raised against rhVim with 6-His; It was detected with anti-mouse IgG; also called 84-1 mAb; 84-1 antibody
binding result [1]: binds
spot intensity relative to antibody 12-1 [2]: 2 fold
binding result [3]: binds
binding result [4]: binds
binding result [5]: binds
